The target in the assay is T1, human sortilin receptor (SORT1), recombinant protein (human, UniProt Q99523 78-755, limits assumed).
T1 construct: Recombinant protein; also called sortilin 1
T1 sequence (looked up): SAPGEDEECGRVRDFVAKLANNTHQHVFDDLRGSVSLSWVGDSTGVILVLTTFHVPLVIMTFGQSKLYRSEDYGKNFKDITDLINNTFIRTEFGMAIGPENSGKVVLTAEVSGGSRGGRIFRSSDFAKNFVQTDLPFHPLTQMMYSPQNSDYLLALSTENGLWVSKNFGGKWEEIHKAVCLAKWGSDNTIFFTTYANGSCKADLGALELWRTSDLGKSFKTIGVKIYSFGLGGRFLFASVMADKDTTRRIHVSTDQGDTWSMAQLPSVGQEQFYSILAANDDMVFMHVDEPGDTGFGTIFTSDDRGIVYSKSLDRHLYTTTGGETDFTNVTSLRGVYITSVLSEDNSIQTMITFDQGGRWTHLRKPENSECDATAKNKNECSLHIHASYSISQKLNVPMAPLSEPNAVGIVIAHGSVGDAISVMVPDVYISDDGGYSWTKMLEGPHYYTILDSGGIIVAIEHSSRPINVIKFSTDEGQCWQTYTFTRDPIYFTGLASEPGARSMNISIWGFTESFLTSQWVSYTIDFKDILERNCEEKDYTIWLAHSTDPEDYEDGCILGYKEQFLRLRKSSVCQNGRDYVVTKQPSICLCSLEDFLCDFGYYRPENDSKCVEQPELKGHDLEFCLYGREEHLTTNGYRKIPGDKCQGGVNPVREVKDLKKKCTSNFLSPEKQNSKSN
In words: Biacore (SPR), His-tagged PGRNΔ3 over immobilized human sortilin. A general note: In SPR one partner is held on a chip, and binding of the other changes the refractive index at the surface.

B1: recombinant human His-tagged progranulin lacking the final three carboxy-terminal amino acids (PGRNΔ3) (ligand)
chain: TRCPDGQFCPVACCLDPGGASYSCCRPLLDKWPTTLSRHLGGPCQVDAHCSAGHSCIFTVSGTSSCCPFPEAVACGDGHHCCPRGFHCSADGRSCFQRSGNNSVGAIQCPDSQFECPDFSTCCVMVDGSWGCCPMPQASCCEDRVHCCPHGAFCDLVHTRCITPTGTHPLAKKLPAQRTNRAVALSSSVMCPDARSRCPDGSTCCELPSGKYGCCPMPNATCCSDHLHCCPQDTVCDLIQSKCLSKENATTDLLTKLPAHTVGDVKCDMEVSCPDGYTCCRLQSGAWGCCPFTQAVCCEDHIHCCPAGFTCDTQKGTCEQGPHQVPWMEKAPAHLSLPDPQALKRDVPCDNVSSCPSSDTCCQLTSGEWGCCPIPEAVCCSDHQHCCPQGYTCVAEGQCQRGSEIVAGLEKMPARRASLSHPRDIGCDQHTSCPVGQTCCPSLGGSWACCQLPHAVCCEDRQHCCPAGYTCNVKARSCEKEVVSAQPATFLARSPHVGVKDVECGEGHFCHDNQTCCRDNRQGWACCPYRQGVCCADRRHCCPAGFRCAARGTKCLRREAPRWDAPLRDPALR
notes: also called PGRNDel3; progranulinΔ3; not shown: HIS-tag fused to the N-terminal part of the protein
Turning to B1, the binding result was “no binding”.
